“Also recorded” adds a separate entry of the source.
B1: shRNA-1: small hairpin RNA for mouse Tac2 gene (SEQ ID NO: 9, 10), expressed from AAV5-H1-shRNA-CMV-zsGreen (nucleic acid)
chain 1: CCGACGTGGTTGAAGAGAACACCGCTTCCTGTCACGGTGTTCTCTTCAACCACGTCTTTTTT
chain 2: AAAAAAGACGTGGTTGAAGAGAACACCGTGACAGGAAGCGGTGTTCTCTTCAACCACGTCGG
B2: shRNA-2: small hairpin RNA for mouse Tac2 gene (SEQ ID NO: 11, 12), expressed from AAV5-H1-shRNA-CMV-zsGreen (nucleic acid)
chain 1: CCGCCTCAACCCCATAGCAATTAGCTTCCTGTCACTAATTGCTATGGGGTTGAGGCTTTTTT
chain 2: AAAAAAGCCTCAACCCCATAGCAATTAGTGACAGGAAGCTAATTGCTATGGGGTTGAGGCGG

Tested on: Tac2 mRNA
Experiment: Tac2 mRNA knockdown by FISH and qRT-PCR in brain of shRNA mice
Type: in vivo, mouse
Conditions: for knockdown of Tac2 mRNA (efficacy of shRNA): FISH and qRT-PCR; for Tac2 mRNA in CeA / Tac2 mRNA in DMH / Tac2 mRNA in dBNSTa: FISH fluorescence / qRT-PCR vs luciferase shRNA control
Method: Fluorescent in situ hybridization (FISH) was carried out according to the protocol described in (Thompson et al., 2008; incorporated by reference in its entirety) with modifications. Briefly, mice were transcardially perfused with 1×PBS followed by 4% paraformaldehyde/PBS (PFA) in 1×PBS. Brains were fixed in 4% PFA for 3-4 hours at 4° C., and cryoprotected overnight in 15% sucrose at 4° C. Brains were embedded in OCT Compound (Fisher Scientific) and cryosectioned at 30 μm thickness and mounted on Superfrost Plus slides (Fisher Scientific). Sections were fixed in 4% PFA for 30 minutes, acetylated with 0.25% acetic anhydride in 0.1 M triethanolamine for 10 minutes, dehydrated with increasing concentrations of EtOH (50, 70, 95 and 100%), gently treated with proteinase K ([…] in 0.01M Tris-HCl pH 7.4 and 0.001M EDTA) for 10 minutes, and fixed in 4% PFA for 20 minutes. All procedures were performed at room temperature (RT). The hybridization buffer contained 50% deionized formamide, 3× standard saline citrate (SSC), 0.12 M PB (pH 7.4), 10% dextran sulfate, 0.12 mg/ml yeast tRNA, 0.1 mg/mL calf thymus DNA, and 1× Dehardt solution. The sections were prehybridized at 63° C. in hybridization buffer for 30 minutes and then hybridized with the digoxigenin-labeled Tac2 RNA probe (300 ng/ml) in hybridization buffer at 63° C. for 16 hours. After hybridization, the sections were washed with 5×SSC for 10 minutes, 4×SSC/50% formamide for 20 minutes, 2×SSC/50% formamide for 30 minutes, and 0.1×SSC for 20 minutes twice each at 61° C. The sections were blocked with 4% sheep serum in TNT buffer (Tris-HCl pH7.5, 0.15 M NaCl and 0.00075% Tween 20) for 30 minutes and TNB Blocking buffer (TSA blocking reagent, PerkinElmer, Waltham, MA) for 30 minutes at RT. The sections were incubated overnight at RT with anti-digoxigenin-POD antibody (1:600, Roche Diagnostics) in TNB buffer. The sections were washed with TNT buffer and tyramide-biotin signal amplification was performed using the TSA Plus Biotin Kit (PerkinElmer). Signals were visualized after 1 hour incubation with Alexa Fluor 594 Streptavidin (Jackson ImmunoResearch) or Alexa Fluor 488 Streptavidin (Invitrogen) at RT. Sections were counterstained with DAPI ([…] in PBS), washed with 1×PBS, and coverslipped using Fluoro-Gel with Tris Buffer (Electron Microscopy Sciences). Tissue images of entire coronal brain sections were taken using an Olympus VS120-S6-W slide-scanner and cells positive for the probe were counted. Cell Counting
Following confocal or slide-scanner imaging, quantification of labeled cells was performed using ImageJ and Metamorph. Cells were counted by an observer blind to experimental conditions. Brain images were converted to greyscale (16-bit) in ImageJ and adjusted using automatic thresholding and watershed separation. Cells were either counted automatically using ImageJ's particle analysis algorithm (random sections were counted manually to cross-check that automated scoring was consistent with manual human scoring); otherwise, cells were counted manually using MetaMorph. Cells that were not entirely contained within a given region of interest (ROI) were excluded from analyses. Relative fluorescent intensities were measured automatically using MetaMorph for a given ROI. Raw cell counts within an ROI were divided by the size of the ROI (mm^2) to produce the number of positively labeled cells/mm^2.
Group housed or isolated (30 minutes, 24 hours, 2 weeks) mice were decapitated and brains were quickly removed and placed in RNA Later (Qiagen) at 4° C. Tissue from dBNSTa, DMH, CeA, ACC, and dHPC was microdissected and placed in RNA Later. Tissue was then homogenized and RNA purified using an RNAeasy Plus Mini Kit (Qiagen). 150ng of total RNA/region/condition was then incubated with 3 μl of Turbo DNase, 1 μl of Murine RNase Inhibitor in 1× Turbo DNase buffer for 15 minutes at 37° C. to remove any contaminating genomic DNA. […]

Molecule | knockdown of Tac2 mRNA (efficacy of shRNA) | Tac2 mRNA in CeA | Tac2 mRNA in DMH | Tac2 mRNA in dBNSTa
B1 | proved effective | appeared reduced | reduced | reduced
B2 | proved effective; also recorded: strongest reductions; also recorded: stronger knockdown | appeared reduced | reduced | reduced

From US12083109B2, “Neurokinin antagonists and uses thereof” (California Institute of Technology, priority 2017, dated 2024)
